Here are results for five molecules from patent publication US20170320910A1 (published 2017).

For assay [1], the target named is VASP-EVH1 domain (UniProt P50552). Put plainly: ITC. For orientation: ITC needs no label: the signal is the heat of the interaction.
The target is the same in assay [2]. Put plainly: fluorescence titration (FT).
Assay [3] concerns the target T1, VASP-EVH1 domain (UniProt P50552 1-115).
T1 construct: domain: EVH1
Put plainly: ITC.

The target of assay [4] is T1, VASP-EVH1 domain. Nature of the assay: fluorescence titration (FT).

[ ]: non-standard residue; d: D form. Phe(2-Cl) = N[C@@H](Cc1ccccc1Cl)C(=O)O

The Kd is the concentration at which binding is half-saturated. A lower Kd goes with a tighter complex.

Chain of VASP-EVH1 domain (UniProt P50552) (P50552 1-115 limits assumed): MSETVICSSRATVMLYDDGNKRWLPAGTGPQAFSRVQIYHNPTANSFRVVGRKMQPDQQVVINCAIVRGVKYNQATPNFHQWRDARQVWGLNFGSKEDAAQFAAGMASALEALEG
T1 sequence (P50552 1-115 limits assumed): as above

Ac-Phe(2-Cl)-PP[ProM-9]-OH (peptide): in the assay with VASP-EVH1 domain [1], the Kd amounted to 8 µM and the ΔG is -6.96 kcal/mol. Besides, in the assay with VASP-EVH1 domain [2], the dissociation constant (Kd) was found to be 0.4 µM and the ΔG was -8.77 kcal/mol.

Regarding Ac-Phe(2-Cl)-PP[ProM-1]-OH (peptide), in the assay with VASP-EVH1 domain [1], the dissociation constant Kd stood at 14.1 µM and the ΔG is -6.62 kcal/mol. Also, in the assay with VASP-EVH1 domain [2], the dissociation constant Kd is 3.2 µM and the ΔG is -7.5 kcal/mol.

Ac-Phe(2-Cl)-[ProM-2][ProM-4]-OH: in the assay with VASP-EVH1 domain [1], the Kd is 9.7 µM and the ΔG was -6.84 kcal/mol. Further, in the assay with VASP-EVH1 domain [2], the Kd came to 1.6 µM and the ΔG is -7.91 kcal/mol.

B1: Ac-Phe(2-Cl)-PPPP-OH (peptide)
peptide: Ac-[Phe(2-Cl)]PPPP-OH
SMILES: CC(=O)N[C@@H](Cc1ccccc1Cl)C(=O)N1CCC[C@H]1C(=O)N1CCC[C@H]1C(=O)N1CCC[C@H]1C(=O)N1CCC[C@H]1C(=O)O
In the case of B1, in the assay with VASP-EVH1 domain [3], the Kd turned out to be 18 µM and the ΔG is -6.45 kcal/mol. In the assay with VASP-EVH1 domain [4], the Kd stood at 13 µM and the ΔG is -6.64 kcal/mol.

B2: Ac-FPPPP-OH (peptide)
peptide: Ac-FPPPP-OH
notes: Starting ligand shortened to the FPPPP core motif; also called FPPPP core motif ligand
For B2, in the assay with VASP-EVH1 domain [3], the Kd came to 1300 µM and the ΔG was -3.94 kcal/mol. Moreover, in the assay with VASP-EVH1 domain [4], binding was characterised by a dissociation constant (Kd) of 780 µM and the ΔG is -4.23 kcal/mol.
